From the nanobody polyreactivity screen of Harvey et al. (2022)

Test: yeast display, Sf9 membrane polyspecificity reagent, FACS + sequencing; frameworks hold sequencing errors
Method in brief: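 A nanobody's polyreactivity label depends on the gate it was sorted from. Yeast display cells were stained with 10% biotinylated, detergent-solubilized Sf9 membrane reagent for 1 hour at 4 °C, enriched on streptavidin microbeads and sorted by FACS. The low and high (top ~1%) gates were set on anti-HA fluorescence for expression and streptavidin fluorescence for reagent binding.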

| Sequence | polyreactivity (PSR sort gate) |
| --- | --- |
| QVQLVESGGGLVQAGGSLRLSCAASGNTFGNYAMGWYRQAPGKERELVAAITTIGGSTYYADSVKGRFTISRDNAKNTVYLQMNRLKPEDTAVYYCAKVENRYPVGKYDYWGQGTQVTVSS | low polyreactivity |
| QVQLVESGGGLVQAGGSLRLNCAASGSILYLNAMGWYRQAPGKERELLAAITWSGGSTSYADSVKGRFTISRDYAKNTVSLQMNSLKPEDTAVYYCSAVRRGYGGVYYAGGYWGQGTQVTVSW | low polyreactivity |
| QVQLVESGGGLVQAGGSLRLSCAASGRIFGPYAMGWYRQAPGKERELVATITWRTGSTYYADSVKGRFTISRDNAKNTVYLQMNSLKPEDTAVYYCAAQSRQAYITYGYWGQGTQVTVSS | high polyreactivity |
| QVQLVESGGGLVQAGGSLRLSCAASGRIFSYAMGWYRQAPGKERELVAAINWSGDSTYYADSVKGRFTISRDNAKNTVYLQMNSLKPEDTAVYYCNAVSAYWGAYGYWGQGTQVTVSS | high polyreactivity |
| QVQLVESGAGLVQAGGRLRLSCAPSGSTFIYNAMGWYRQAPGKERELVASITGGTSTNYADSVKGRFTISRDNAKNTVYLQMNSLKPEDTAVYYCAAVWVWGEYDYWGQGTQVTVSS | low polyreactivity |
| QVQLVESGGGLVQAGGSLRLSSAASGSIFYYYAMGWYRQAPGKARELVATINISDGSTYYAVSVKGRFTISRDNAKNTVYLQMNSLKPEDTAVYYCAAYYYFQDYDYWGQGTQVTVSS | low polyreactivity |
| QVQLVESGGGLVQEGGSLRLSCAASGRIFPYYAMGWYRQAPGKERELVATITSGGSTYYADSVKGRFTISRDNAKNTVYLQMNSLKPEDTAVYYCAARYPSIYYYRYDYWGQGTQVTVSS | high polyreactivity |
| QVQLVESGGGLVQAGGSLRLSCAASGRIFLRYAMGWYRQAPGKERELVAVITWSGGSTNYADSVKGRFTISRDNAKNTVYLQMNSLKREDTAVYYCAVDNTGRSWPYDYWGQGTQVTVSS | low polyreactivity |
| QVQLVESGGGLVQAGGSLRLSCAASGSIFRQYAMGWYRQAPGKERELVAAINYSGGNTYYADSVKGRFTISRDNAKNTVYLQMNSLKPEDTAVYYCAADSVRHYWWAYYYWGQGTQVTVSS | low polyreactivity |
| QVQLVESGGGLVQAGGSLRLSCAASGGTFRAYVMGWYRQAPGKERELVAAISRSGTRTYYADSVKGRFTISRDNAKNTVYSQLNSLKPEDTAVYYCAAAANSWLFDYWGQGTQVTVSS | high polyreactivity |
| QVQLQESGGGLVQASGSLRLSCAASGNIFPDYVMGWYRLAPGKEREFVANITGGSTTNYADSVKGRFTISRDNAKNTVYLQMNSLNPEDTAVYYCAVNFGTVVLYLYWGQGTQVTVSS | high polyreactivity |
| QVQLVESGGGLVQAGGSLRLSCAASGFIFGGNAMGWYRQAPGNERELVARISSGGITSYADSVKGRFTISRDNAKNSVYLQMYSLKPEDTAVYYCAADDYVSTQDDSYYEYDYWGQGTQVTVSS | low polyreactivity |
| QVQLVESGGGLVQAGGSLRLSCAASGRIGAYAMGWYRQAPGKERELVAAIRWSTGSTYYADSVKGRFTISRDNAKNTVFLQMNSLKPEDTAVYYCAAEFVRRGGDFWGQGTQVTVSS | high polyreactivity |
| QVQLVESGGGLVQAGGSLRLSCAASGRICGYNSMGWYRQAPGKERELVAAISSSGGSTYYADSVKGRFTISRDYATNTVYVQMNSLKREATAVYYCAARIGYRSWAWDAYEYCGQGTQVTVSS | low polyreactivity |
| QVQLVESGGGLVQAGGSLRLSCAASGRIFPGNPMGWYRQATGQERELVAGISFSGGRTYYADSVKGRFTISRDNAKNTVYLQIISLKPEDTAVYYCATKYQQHCWSYDYWGQGTQVTVSS | low polyreactivity |
| QVQLVESGGGLVQAGGSLRLSCAASGSIFRTNAMGWYRQAPGKERELVAAITTSGVTTYYADSVKGRFTISRDNPTNTVYLQMNSLKPEDTAVYYCNARDGRYLPRYDYWRQGTQVTVSS | low polyreactivity |
